Substitutions are numbered along the chain they refer to. Names may count otherwise.
B1: wt: 69-nucleotide full-length wild-type guanine sensing aptamer RNA sequence from xpt-pbuX operon in B. subtilis (SEQ ID NO: 1) (nucleic acid)
chain: CACUCAUAUAAUCGCGUGGAUAUGGCACGCAAGUUUCUACCGGGCACCGUAAAUGUCCGACUAUGGGUG
modifications: RNA, backbone and methylation of C not given here
B2: m1: m1 mutant guanine sensing aptamer RNA (SEQ ID NO: 2); G37 replaced with adenine in the L2 loop (nucleic acid)
chain: B1 chain with G24A
modifications: RNA, backbone and methylation of C not given here
notes: G37 replaced with adenine in the L2 loop
B3: m7: m7 mutant guanine sensing aptamer RNA (SEQ ID NO: 8); U25C in J1/2 (nucleic acid)
chain: B1 chain with U12C
modifications: RNA, backbone and methylation of C not given here
B4: m6: m6 mutant guanine sensing aptamer RNA (SEQ ID NO: 7); U67A, shorter P3 hairpin and larger L3 loop (nucleic acid)
chain: B1 chain with U54A
modifications: RNA, backbone and methylation of C not given here
notes: U67A, shorter P3 hairpin and larger L3 loop
B5: m4: m4 mutant guanine sensing aptamer RNA (SEQ ID NO: 5); A59G/U67C in the P3 hairpin (nucleic acid)
chain: B1 chain with A46G, U54C
modifications: RNA, backbone and methylation of C not given here
notes: A59G/U67C in the P3 hairpin

Test system: lac Z expression
Test: β-galactosidase reporter assay (xpt-lacZ fusion)
Type: cell-based, B. subtilis
Conditions: for lac Z expression / transcriptional control (in words): presence and absence of guanine, B. subtilis
Method: Kissing-loop mutants were analyzed to determine whether they can exert riboswitch activities by controlling transcription termination, given that the guanine binding was retained in all of them. To test this, a β-galactosidase reporter assay was performed in B.subtilis. […] The gene expression is repressed in wild-type due to the transcription termination in the presence of guanine. […] The fast kissing dynamics between the L2-L3 probably have a stabilizing effect on P1, and therefore an increase in the transcription termination is observed. […] This underscores that the L2-L3 dynamics are directly involved in the P1-helix formation, which affects the terminator hairpin downstream that ultimately results in an alteration of the riboswitch activities.
To assess if the aptamer mutants can exert a transcriptional control similar to the previously reported wild-type xpt-pbuX riboswitch, a xpt-lacZ fusion was constructed as described by Mandal et al., “Riboswitches control fundamental biochemical pathways in Bacillus subtilis and other bacteria”. Cell 113, 577-586 (2003). Briefly, nts −121 to +197 relative to the transcriptional start site of the xpt-pbuX operon from B. subtilis 1A1 (BGSC, Columbus, Ohio) was PCR amplified and cloned upstream of the lacZ reporter gene into pDG1661 vector. After confirming the cloned sequence, plasmid variants were integrated into the amyE locus of the 1A1 strain. Transformants were selected for double markers, specifically for chloramphenicol (5 μg/ml) resistance and sensitivity to spectinomycin (100 μg/ml). Selected B. subtilis colonies were subsequently grown in minimal media (25 g/L K2HPO4·3H2O, 6 g/L KH2PO4, 1 g/L sodium citrate, 0.2 g/l MgSO4·7H2O, 2 g/L Na2SO4, 50 μM FeCl3, 2 μM MnCl2, 50 μg/ml L-Tryptophan, 50 μg/ml L-Lysine, 50 μg/ml L-Methionine, 0.4 g/100 ml glucose, and 0.2 g/100 ml glutamate) at 37° C. with vigorous shaking. Purines were added at a final concentration of 0.1 mg/ml. Cells were harvested at mid-logarithmic growth phase (A600˜0.1-0.4), and resuspended in the above buffer for the reporter assay. The color development was recorded by measuring absorbance, A420 at the end of the reaction with appropriate controls. Data is represented in Miller Units calculated from the following relation:
[formula] where Δt is the total duration taken in the substrate cleavage by […], measured as absorbance, A420. The Miller Units shown in FIG. 4A represents mean±standard deviation from 3 independent experiments, wherein each independent experiment was performed in duplicate.

Molecule	lac Z expression / transcriptional control (in words)	Expression higher than the wild-type (in the presence of guanine) [fold]	Repression exceeding the wild-type repression (in the presence of guanine) [fold]
B1	repressed		
B2	completely de-repressed		
B3		~2.5	
B4	highly repressed		~3
B5	moderately repressed	~7	
